Laboratory results from patent US20250129165A1.

Experiments:
[1] = target: human BTN3A as expressed on human cells (PBMCs, Daudi Burkitt's lymphoma cells, AML cells, monocytes) (human) (UniProt O00481); assay: cell-based or functional assay
[2] = target: human BTN3A as expressed on human cells (PBMCs, Daudi Burkitt's lymphoma cells, AML cells, monocytes) (human) (UniProt O00481); assay: flow cytometry on human PBMCs
[3] = target: cynomolgus BTN3A as expressed on cynomolgus PBMCs (cynomolgus); assay: flow cytometry on cynomolgus PBMCs
[4] = target: human BTN3A as expressed on human cells (PBMCs, Daudi Burkitt's lymphoma cells, AML cells, monocytes) (human) (UniProt O00481); assay: flow cytometry on Daudi Burkitt's lymphoma cells
[5] = target: human BTN3A1 antigen (Sino Biological cat. no. 15973-H08H) (human) (UniProt O00481); assay: SPR, Biacore T200 multi-cycle kinetics; antibody captured on Protein A, BTN3A1 as analyte
human BTN3A1 antigen (Sino Biological cat. no. 15973-H08H) (human), sequence (O00481 30-254 limits assumed): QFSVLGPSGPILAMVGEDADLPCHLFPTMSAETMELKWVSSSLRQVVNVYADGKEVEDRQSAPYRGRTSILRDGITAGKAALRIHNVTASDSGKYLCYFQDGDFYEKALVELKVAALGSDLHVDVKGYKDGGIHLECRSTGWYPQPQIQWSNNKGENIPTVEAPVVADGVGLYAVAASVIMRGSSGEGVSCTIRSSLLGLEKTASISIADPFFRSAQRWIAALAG

Functional assay (AML resistant) (γδT cell-based, EC50, µg/mL) [1]: 0.18 µg/mL | Functional assay (AML sensitive) (γδT cell-based, EC50, µg/mL) [1]: 0.05 µg/mL | Functional assay (Daudi) (γδT cell-based, EC50, µg/mL) [1]: 0.02 µg/mL | Vγ9Vδ2 T cell degranulation with PBMCs from C. burnetii patients, 20.1 at 10 µg/ml [1]: 24.1% | Vγ9Vδ2 T cell degranulation with PBMCs from healthy donors, 20.1 at 10 µg/ml [1]: 3.24% | Vγ9Vδ2 T cell degranulation, Mean % CD107+ cells, monocytes infected with C. burnetii Guiana, 20.1 at 10 µg/ml (isotype 37.23) (% CD107+ cells) [1]: 71.5 | Vγ9Vδ2 T cell degranulation, Mean % CD107+ cells, monocytes infected with C. burnetii NM1, 20.1 at 10 µg/ml (isotype 42.1) (% CD107+ cells) [1]: 67.2 | Vγ9Vδ2 T cell degranulation, Mean % CD107+ cells, non stimulated monocytes, 20.1 at 10 µg/ml (isotype 8.59) (% CD107+ cells) [1]: 45.8 | EC50 [2]: 3.02 µg/mL | EC50 [3]: 4.06 µg/mL | EC50 [4]: 1.19 µg/mL | Kd [5]: 234 pM
Substance: mAb 20.1, parent murine antibody
